Reference: patent US20260097113A1 (Pfizer, published 2026)

T1: RSV F protein of subtype A comprising a polypeptide of SEQ ID NO: 1 and a polypeptide of SEQ ID NO: 2 (RSV subtype A, UniProt P11209 137-513; P03420 26-109)
T1 construct: Stabilized prefusion F trimer made of three F2-F1 heterodimers; Produced recombinantly in CHO cells; also called RSV A; RSVA
T1 chain 1: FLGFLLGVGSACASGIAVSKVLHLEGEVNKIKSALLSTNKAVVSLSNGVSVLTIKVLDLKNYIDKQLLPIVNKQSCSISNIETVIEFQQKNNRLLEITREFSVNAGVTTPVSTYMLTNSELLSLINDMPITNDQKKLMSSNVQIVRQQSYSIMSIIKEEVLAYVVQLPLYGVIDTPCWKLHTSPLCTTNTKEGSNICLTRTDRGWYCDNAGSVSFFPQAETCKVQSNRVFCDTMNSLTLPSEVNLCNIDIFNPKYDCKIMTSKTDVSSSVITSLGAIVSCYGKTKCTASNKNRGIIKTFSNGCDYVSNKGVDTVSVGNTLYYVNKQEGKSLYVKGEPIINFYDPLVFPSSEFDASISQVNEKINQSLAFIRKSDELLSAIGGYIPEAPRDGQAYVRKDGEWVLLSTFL
T1 chain 2: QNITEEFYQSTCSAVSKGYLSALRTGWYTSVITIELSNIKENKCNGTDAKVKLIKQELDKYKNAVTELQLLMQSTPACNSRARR


Assays:
[1] = target: RSV A + RSV B bivalent composition (RSV subtype A; RSV subtype B); assay: AM14 Fab titration by SEC; High-Slow 2 cycle; 3 M 40°C
[2] = target: RSV A + RSV B bivalent composition (RSV subtype A; RSV subtype B); assay: AM14 Fab titration by SEC; composition of Table 14; pre-lyo composition
[3] = target: RSV A + RSV B bivalent composition (RSV subtype A; RSV subtype B); assay: AM14 Fab titration by SEC; Target cycle; 8 M 25°C
[4] = target: RSV A + RSV B bivalent composition (RSV subtype A; RSV subtype B); assay: AM14 Fab titration by SEC; Target cycle; 3 M 2-8°C
[5] = target: RSV A + RSV B bivalent composition (RSV subtype A; RSV subtype B); assay: AM14 Fab titration by SEC; High-Slow 2 cycle; 1 M 25°C
[6] = target: RSV A + RSV B bivalent composition (RSV subtype A; RSV subtype B); assay: AM14 Fab titration by SEC; High-Slow 2 cycle; 3 M 2-8°C
[7] = target: RSV A + RSV B bivalent composition (RSV subtype A; RSV subtype B); assay: AM14 Fab titration by SEC; High-Slow 1 cycle; T0
[8] = target: T1, RSV F protein of subtype A comprising a …; assay: AM14 ELISA; F6 (pH 7, 0 mM NaCl, 4.5% sucrose); 2 wk 25°C
[9] = target: T1, RSV F protein of subtype A comprising a …; assay: AM14 ELISA; F1 (pH 8, 100 mM NaCl, 0% sucrose); T0
[10] = target: T1, RSV F protein of subtype A comprising a …; assay: AM14 ELISA; F9 (pH 8, 50 mM NaCl, 4.5% sucrose); 2 wk 25°C
[11] = target: T1, RSV F protein of subtype A comprising a …; assay: AM14 ELISA; F17 (pH 7, 50 mM NaCl, 4.5% trehalose); 1 wk 25°C
[12] = target: T1, RSV F protein of subtype A comprising a …; assay: AM14 ELISA; F4 (pH 6, 50 mM NaCl, 4.5% sucrose); T0
[13] = target: T1, RSV F protein of subtype A comprising a …; assay: AM14 ELISA; F14 (pH 7, 50 mM NaCl, 4.5% sucrose); 1 wk 25°C
[14] = target: T1, RSV F protein of subtype A comprising a …; assay: AM14 ELISA; F9 (pH 8, 50 mM NaCl, 4.5% sucrose); T0
[15] = target: T1, RSV F protein of subtype A comprising a …; assay: AM14 ELISA; F5 (pH 6, 100 mM NaCl, 9.0% sucrose); 2 wk 25°C
[16] = target: T1, RSV F protein of subtype A comprising a …; assay: AM14 ELISA; F8 (pH 7, 50 mM NaCl, 0% sucrose); 2 wk 25°C
[17] = target: T1, RSV F protein of subtype A comprising a …; assay: AM14 ELISA; F4 (pH 6, 50 mM NaCl, 4.5% sucrose); 1 wk 25°C
[18] = target: T1, RSV F protein of subtype A comprising a …; assay: AM14 ELISA; F17 (pH 7, 50 mM NaCl, 4.5% trehalose); 1 wk 5°C

Molecule	Prefusion Content (%) [1] [%]	Prefusion Content (%) [2] [%]	Prefusion Content (%) [3] [%]	Prefusion Content (%) [4] [%]	Prefusion Content (%) [5] [%]	Prefusion Content (%) [6] [%]	Prefusion Content (%) [7] [%]	AM14 prefusion content (%), relative to standard [8] [%]	AM14 prefusion content (%), relative to standard [9] [%]	AM14 prefusion content (%), relative to standard [10] [%]	AM14 prefusion content (%), relative to standard [11] [%]	AM14 prefusion content (%), relative to standard [12] [%]	AM14 prefusion content (%), relative to standard [13] [%]	AM14 prefusion content (%), relative to standard [14] [%]	AM14 prefusion content (%), relative to standard [15] [%]	AM14 prefusion content (%), relative to standard [16] [%]	AM14 prefusion content (%), relative to standard [17] [%]	AM14 prefusion content (%), relative to standard [18] [%]
AM14 Fab	59	77	75	69	72	62	64	–	–	–	–	–	–	–	–	–	–	–
AM14 (trimeric prefusion specific antibody of the AM14 ELISA) (antibody, V domains shown, Antibody as used in the AM14 ELISA, detected with an HRP-labeled secondary antibody) VH: EVQLVESGGGVVQPGRSLRLSCAASGFSFSHYAMHWVRQAPGKGLEWVAVISYDGENTYYADSVKGRFSISRDNSKNTVSLQMNSLRPEDTALYYCARDRIVDDYYYYGMDVWGQGATVTVSS VL: DIQMTQSPSSLSASVGDRVTITCQASQDIKKYLNWYHQKPGKVPELLMHDASNLETGVPSRFSGRGSGTDFTLTISSLQPEDIGTYYCQQYDNLPPLTFGGGTKVEIKR	–	–	–	–	–	–	–	83	120	60	105	57	77	94	98	85	59	59
